For this series, the system named is ATP. The series can be described thus: switch fluorescence ratio, 500 uM ATP over buffer (Cy3 cluster intensity, sum of 5 cycles each) (fold (ratio)); higher = stronger signal-on switching upon ATP binding; sequences stand for … in TCGTCGGCAGCGTCAGATGTGTATAAGAGACAGTTTTTTTTTTTTTTTTTTTTTTTTT…TC. The settings on record: aptamer strand: ATP DNA aptamer (quencher-CACCTGGGGGAGTATTGCGGAGGAAGG + anchor), 100 nM annealed; ATP concentration: 500 uM. The method in brief: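 After annealing to 100 nM quencher-labelled ATP aptamer, Cy3-labelled switching-strand clusters on a modified Illumina MiSeq flow-cell were imaged in selection buffer. A second image followed after 15 min with 500 uM ATP at 22 °C, and five such buffer/ATP cycles were done, each separated by NaOH stripping and re-annealing. The fluorescence ratio, averaged per switch-domain sequence, is summed target-cycle over summed buffer-cycle Cy3 intensity per cluster, with clusters outside 100-1000 RFU excluded.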

± gives the standard deviation of the averaged measurements.
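Further: ATP exposure 15 min at 22 °C before imaging.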

Turning to AACGATGAAG, the switch fluorescence ratio was 1.01 ± 0.043.
On to AGGGAAAAAA, for which the switch fluorescence ratio is 1.01 ± 0.043.
Under AGTCTGGATG stands 0.96 ± 0.02.
As for AAATATCGGT, the switch fluorescence ratio was 0.971 ± 0.018.
As to CGGTGTAGGG, the switch fluorescence ratio came to 0.99 ± 0.03.
Turning to TCTCCGTCCT, the switch fluorescence ratio is 1.33 ± 0.025.
With TTTTCATGGC, the switch fluorescence ratio came to 1.06 ± 0.018.
For AGTATTGGGG, the switch fluorescence ratio was 0.999 ± 0.025.
In the case of ACGTTCAGGG, the switch fluorescence ratio was found to be 1.05 ± 0.059.
Turning to TTAAAAAAGT, the switch fluorescence ratio is 1.01 ± 0.02.
For CGGCGCTTGG, the switch fluorescence ratio came to 1.09 ± 0.035.
Turning to AGTTTAACGC, the switch fluorescence ratio was determined as 0.9911 ± 0.0059.
On to GGGTAGGGCG, for which the switch fluorescence ratio was 1.03 ± 0.14.
Consider ATTAAAGCCC, for which the switch fluorescence ratio stood at 1.02 ± 0.039.
Take GCGAACGGTT: the switch fluorescence ratio is 1.03 ± 0.021.
With TCAATGTGTC, the switch fluorescence ratio worked out at 1.03 ± 0.12.
Under AAGTTTAAGT stands 0.989 ± 0.013.
As to TAACGGGTTT, the switch fluorescence ratio is 1.02 ± 0.015.
As to ATCATCTTGT, the switch fluorescence ratio was determined as 1.042 ± 0.0015.
AAATATTGTT: the switch fluorescence ratio worked out at 0.976 ± 0.027.
In the case of GATTTGGTAG, the switch fluorescence ratio was 1 ± 0.023.
To TTCTTTGGCA belongs 1.052 ± 0.0061.
Consider GTTTAATTGA, for which the switch fluorescence ratio was 0.9676 ± 0.0018.
Turning to CGGCTTATGG, the switch fluorescence ratio came out at 1.03 ± 0.07.
For CTTCTAGCTT, the switch fluorescence ratio was 0.97 ± 0.058.
As to GGAGGCGGAG, the switch fluorescence ratio was 1.002 ± 0.0077.
In the case of ATGACCTTCA, the switch fluorescence ratio is 2.1 ± 0.078.
In the case of TTTGCAGCAT, the switch fluorescence ratio amounted to 1.13 ± 0.22.
For ATTTCGGTTG, the switch fluorescence ratio is 0.989 ± 0.026.
With TACTTGGCCG, the switch fluorescence ratio came to 1.01 ± 0.052.
As for TTCTCTTTTG, the switch fluorescence ratio amounted to 0.993 ± 0.031.
Under ATTGGTCTCA stands 0.975 ± 0.023; under AGGTAGGTCC, 0.998 ± 0.022; under ACTGGTATA, 0.994 ± 0.032.
On to TACGTATAAT, for which the switch fluorescence ratio is 1.15 ± 0.015.
Consider GGGGTGTAAG, for which the switch fluorescence ratio worked out at 0.992 ± 0.02.
Take GTAGGGAGCA: the switch fluorescence ratio worked out at 1.02 ± 0.022.
Under GAGCTACGGG stands 1.01 ± 0.033.
Take GGGTTGGTGT: the switch fluorescence ratio came out at 0.978 ± 0.015.
Consider TGGGGATGAT, for which the switch fluorescence ratio amounted to 1 ± 0.022.
Consider CAATTAAACC, for which the switch fluorescence ratio came out at 1.05 ± 0.028.
In the case of GGGTTGAATA, the switch fluorescence ratio amounted to 0.953 ± 0.056.
For the sequence TGAGCTGATG, the switch fluorescence ratio was determined as 0.986 ± 0.032.
For the sequence CGTTCGTGGG, the switch fluorescence ratio worked out at 0.953 ± 0.018.
With GAAACTAATG, the switch fluorescence ratio came to 1.01 ± 0.013.
To ATAGGAGGGA belongs 1.01 ± 0.017; to AGGTAAATTC, 2.33 ± 0.63.
Under AAAATGGGGA stands 1.02 ± 0.033; under AGGGGTAGTG, 0.98 ± 0.019.
For TCACAATTTT, the switch fluorescence ratio is 1.08 ± 0.097.
To ACACTTTTTT belongs 1 ± 0.055; to AGGCACGGGC, 1.0064 ± 0.001.
As to CGTGACCGGA, the switch fluorescence ratio stood at 0.972 ± 0.014.
For TAACGGGGGG, the switch fluorescence ratio was determined as 0.999 ± 0.045.
CGGTGAAGAA: the switch fluorescence ratio is 0.989 ± 0.013.
For the sequence AGCTCGGGGG, the switch fluorescence ratio stood at 1 ± 0.034.
On to AATATAGGAC, for which the switch fluorescence ratio worked out at 0.972 ± 0.013.
Take GCAGTAAATA: the switch fluorescence ratio turned out to be 1.009 ± 0.0086.
TAGGGCCTTT: the switch fluorescence ratio stood at 0.986 ± 0.023.
CAAATGTTGG: the switch fluorescence ratio is 0.983 ± 0.026.
To AGTTCACTAT belongs 0.975 ± 0.011; to AATTTGAGGG, 0.979 ± 0.016; to GGTTTTGCGG, 0.997 ± 0.029.
For TCGTCGGGGA, the switch fluorescence ratio came to 1.01 ± 0.014.
Turning to TTGTTTTCGT, the switch fluorescence ratio was found to be 1.01 ± 0.039.
In the case of ATTATGTATC, the switch fluorescence ratio was 0.996 ± 0.011.
Regarding CGTGTTTTTT, the switch fluorescence ratio is 0.991 ± 0.029.
For TATGGCAACC, the switch fluorescence ratio amounted to 1.03 ± 0.061.
On to TAGTTGGCCC, for which the switch fluorescence ratio came out at 1.006 ± 0.0034.
To CCAGCTTTGC belongs 1.02 ± 0.057.
GTGTTTCTAT: the switch fluorescence ratio came to 1 ± 0.013.
Take AATGGGCTAG: the switch fluorescence ratio stood at 0.993 ± 0.059.
To ACGAGACAGC belongs 1.191 ± 3.6e-05; to AAGGCGGCAC, 1.05 ± 0.02; to GGATTGGTTT, 0.983 ± 0.03.
CTCGGTGGTG: the switch fluorescence ratio stood at 0.959 ± 0.024.
As to CCCGGAAGTG, the switch fluorescence ratio turned out to be 1.24 ± 0.018.
Turning to GTGTTATTTA, the switch fluorescence ratio was found to be 0.977 ± 0.046.
For TTCTTTTCGT, the switch fluorescence ratio is 0.979 ± 0.041.

The values above are taken from the supplement of paper PMC10126150.
